The values that follow come from the RNAGym collection of RNA variant scans (doi:10.1073/pnas.2313332121).

B1: TPR t1 (parent)
chain: GACCAAUCUGCCCUCAGAGCUCGAGAACAUCUUCGGAUGCAGAGGAGGCAGGCUUCGGUGGCGCGAUAGCGCCAACGUCCUCAACCUCCAAUGCAUCCCACCACAUGAUGAUGCCUGAAGAGCCUUGGUUUUUUG

The variants in the series derive from B1. As to the kind of experiment: polymerase ribozyme fitness, log enrichment relative to wild type (log ratio); higher = more active; in vitro selection for triplet polymerase activity. In a few lines: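 To select mutant libraries of each subunit of a heterodimeric triplet polymerase ribozyme, built by PCR and transcribed, each was annealed with a biotinylated primer, partner subunit and triplets, then incubated frozen at −7 °C. Extended constructs were gel-excised, captured on streptavidin beads and amplified by RT-PCR, in one round carried out in triplicate. Illumina sequencing of input and output libraries kept genotypes with ≥10 input reads and ≥1 read per output. Fitness is the base-2 logarithm of genotype enrichment relative to wild-type enrichment, from inverse-variance-weighted replicate averages.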
As for GACCAAUCUGCCCUCAGAGCUCGAGAACAUCUUCGUAUGCAGAGGAGGCAGGCUUCGGUGGCGCGAUAGCGCCAACGCCCUCAACCUCCAAUGCAUCCCACCACAUGAUGAUGCCUGAAGAGCCUUGGUUUUUUG [G36U U78C], the “polymerase ribozyme fitness (log ratio)” value is -1.61.

With GACCAAUCUGCCCUCAGAGCUCGAGAACAUCUUCGGCUGCAGAGGAGGCAGGCUUCGGUGGCGCGAUGGCGCCAACGCCCUUAACCUCCAAUGCAUCCCACCACAUGAUGAUGCCUGAAGAGCCUUGGUUUUGUG [A37C A68G U78C C82U U133G], the “polymerase ribozyme fitness (log ratio)” value is -3.87.

On to GACCAAUCUGCCCUCAGAGCUCGAGAACAUCUUCGGCUGCAGAGGAGGUAGGCUUCGGUGCCGCGAUAGCGCCAACGUCCUCAACCUCCAAUGCAUCCCACCACAUGAUGAUGCCUGAAGAGCCUUGGUUUUUUG [A37C C49U G61C], for which the “polymerase ribozyme fitness (log ratio)” value is -3.38.

In the case of GACCAAUCUGCCCUCAGAGCUCGAGAACAUCUUCGGCUGCAAUGGAGGCAGGCUUCGGUGGCGCGAUAGCGCCAACGUCCUCAACCUCCAAUGCAUCCCACCAAAUGAUGAUGCCUGAAGAGCCUUGGUUUUUUG [A37C G42A A43U C104A], the “polymerase ribozyme fitness (log ratio)” value is -5.34.

For GACCAAUCUGCCCUCAGAGCUCGAGAACAUCUUCGGCUGCAGAGGAGGCAGGCUUCGGUGGCGCGAUAGCGCCAACGUCCUCAACCUCCAAUGCAUCUCACCACAUGAUGAUGCCUGAAGAGCCUUGGUUUUUUG [A37C C98U], the “polymerase ribozyme fitness (log ratio)” value is -1.41.

With GACCAAUCUGCCCUCAGAGCUCGAGAACAUCUUCGGCUGCACAGGAGGCAGGCUUCGGUGGCGCGAUAGCGCCAACGUCCUCAACCUCCAAUGCAUCCCACCACAUGAUGAUGCCUGAAGAACCUUGGUUUUUUG [A37C G42C G122A], the “polymerase ribozyme fitness (log ratio)” value is -2.78.

GACCAAUCUGCCCUCAGAGCUCGAGAACAUCUUCGGCUGCAGAGGAGGCAGGUUUCGGUGGCGCGAUAGCGCCAACGUCCGCAACCUCCAAUGCAUCCCACCACAUGAUGAUGCCUGAAGAGCCUUGGUUUUUUG [A37C C53U U81G]: the “polymerase ribozyme fitness (log ratio)” value was -2.81.

In the case of GACCAAUCUGCCCUCAGAGCUCGAGAACAUCUUCGGCUGCAGAUGAGGCAGGCUUGGGUGGCGCGAUAGCGCAAACGUCCUCAACUUCCAAUGCAUCCCACCACAUGAUGAUGCCUGAAGAGCCUUGGUUUUUUG [A37C G44U C56G C73A C86U], the “polymerase ribozyme fitness (log ratio)” value is -5.78.

With GACCAAUCUGCCCUCAGAGCUCGAGAACAUCUUCGGCUGCAGAGGAGGCAGGCUUCGGUGGCGCGAUAGCGCCAACGUCCUCAACCUCCAAUGCAUCCCACCACAUGAUGAUGGCUGAAAAGUCUUGGUUUUUUG [A37C C114G G120A C123U], the “polymerase ribozyme fitness (log ratio)” value was -5.25.

For GACCAAUCUGCCCUCAGAGCUCGAGAACAUCUUCGGCUGCAGAGCAGGCAGGCUUCGGUGGCGCGAUAGCGCCAACGUCCUCAACCUCCAAUGCAUCCCACCACAUGAUGGUGCCUGAAGAGCCUUGGUUUUUUG [A37C G45C A111G], the “polymerase ribozyme fitness (log ratio)” value is -2.91.

As to GACCAAUCUGCCCUCAGAGCUCGAGAACAUCUUCGGCUGCAGAGGAGGCAGGCUUCGGUGGCGCGAUAGCGCCAACGUCCUCAACCUCUAAUGCAUCCCACCACAUGAUGAUGCGUGAAGAGCCUUGGUUUUUUG [A37C C89U C115G], the “polymerase ribozyme fitness (log ratio)” value is -3.26.

On to GACCAAUCUGCCCUCAGAGCUCGAGAACAUCUUCGGCUGCAGAUGAGGCAGGCUUCGGUGGCGCGAUAGCGCCAACGUCCUCAACCUCCAAUGCAUCCCACCACAUGAUGAUGCCUGAAGAGCCUUGGUUUUGUG [A37C G44U U133G], for which the “polymerase ribozyme fitness (log ratio)” value is -2.6.

As for GACCAAUCUGCCCUCAGAGCUCGAGAACAUCUUCGUAUGCAGAGGAGGCAGGCUUCGGUGGCGCGAUAGCGCCAACGUCCUCAACCUCCAAUGCAUCCCACCACAGGAUGAUGCCUGAAGAGCCUUGGUUUUUUG [G36U U106G], the “polymerase ribozyme fitness (log ratio)” value is -4.55.

GACCAAUCUGCCCUCAGAGCUCGAGAACAUCUUCGGCUGCAGAGGAGGAAGGCUUCGGUGGCGCGAUAGCGCCAACGUCCUCAACCUCCAAUGCAUCCCACCAUAUGAUGAUGCCUGAAGAGCCGUGGUUUUUUG [A37C C49A C104U U125G]: the “polymerase ribozyme fitness (log ratio)” value is -1.1.

GACCAAUCUGCCCUCAGAGCUCGAGAACAUCUUCGGCUGCAGGGGAGGCAGGCUUCGGUGGCGCGAUAGCGCCAACGUCCUCAACCUCCAAUGCAUCCCACCACAUGAUGAUGCCUGAAGAGCCUUGGUUUUUUG [A37C A43G]: the “polymerase ribozyme fitness (log ratio)” value was -2.56.

For the variant GACCAAUCUGCCCUCAGAGCUCGAGAACAUCUUCGGCUGCAGAGGAGGCAGGGUUCGGUGGAGCGAUAGCGCCAACGUCCUCAACCUCCAAUGCAUCCCACCACAUGAUGAUGCCUGAAGAGCCUUGGUUUUUUG [A37C C53G C62A], the “polymerase ribozyme fitness (log ratio)” value is -1.57.

In the case of GACCAAUCUGCCCUCAGAGCUCGAGAACAUCUUCGGCUGCAGAGGAGGCAGGCUUCGGUGGCGCGAUAGCGCCAACGUCCUCAACCUCCAAUGCAUCCCACCACAUGAUGAUGCCUGAAGAGACUUGGUUUUUUG [A37C C123A], the “polymerase ribozyme fitness (log ratio)” value was -0.297.

For the variant GACCAAUCUGCCCUCAGAGCUCGAGAACAUCUUCGGCUGCAAUGGAGGUAGGGUCCGGUGGCGCGAUAGCGCCAACGUCCUCAACCUCCAAUGCAUCCCACCACAUGAUGAUGCCUGAAGAGCCUUGGUUUUUUG [A37C G42A A43U C49U C53G U55C], the “polymerase ribozyme fitness (log ratio)” value was -4.27.

Regarding GACCAAUCUGCCCUCAGAGCUCGAGAACAUCUUCGGCUGCAGAGCAGGCAGGCUUCGGUGGCGCGAUAGCGCCAACGUCCUCAACCUCCAAUGCAUCCCACCACAUGAUGGUGCCUGAAGAGCUUUGGUUUUUUG [A37C G45C A111G C124U], the “polymerase ribozyme fitness (log ratio)” value was -2.52.

Consider GACCAAUCUGCCCUCAGAGCUCGAGAACAUCUUCGGCUGCAGAGGAGGCAGGCUUCGGUGGCGCGAUAGCGCCAAAGUCCUCAACCUCCAAUGCAUCCCACCACAUGAUGAUGCCUGAAGAGCCUUGGUUUUUUG [A37C C76A], for which the “polymerase ribozyme fitness (log ratio)” value was -1.6.

Turning to GACCAAUCUGCCCUCAGAGCUCGAGAACAUCUUCGGCUCCAGAGGAGGCAGGCUUCGGUGGCACGAUAGCGCCAACGUCCUCAACCUCCAAUGCAUCCCACCACAUGAUGAUGCCUGAAGAGCCUUGGUUUUUUG [A37C G39C G63A], the “polymerase ribozyme fitness (log ratio)” value was -4.27.
